B1: Aquaporin 6 N-terminal peptide (h6 Nter) N-terminal calmodulin binding site, 21-aa peptide (peptide)
chain: WASMLACRLWKAISRALFAEF
modifications: dansyl-calmodulin, Ca2+
B2: Aquaporin 6 N-terminal peptide (Nter) N-terminal calmodulin binding site, 21-aa peptide (peptide)
chain: RAYLLVGGLWTAISKALFAEF
modifications: dansyl-calmodulin, Ca2+

Target: Calmodulin (Bos taurus, UniProt P62157)
Experiment: dansyl-calmodulin fluorescence titration

Row | Binder | Kd
1 | B1 | 1780 nM
2 | B2 | 790 nM
